B1: Twister Ribozyme (parent)
chain: AACACUGCCAAUGCCGGUCCCAAGCCCGGAUAAAAGUGGAGGGGGCGG

Variants of: B1
Assay: self-cleavage, relative activity (ratio to wild type); higher = more cleavage; co-transcriptional
Work on AACGCUGCCAAUGCCGGUCCCAAGCCGGGAUAAAAGUGGAGGGGGCGG [A4G C27G] yielded a self-cleavage of 0.0421.
In the case of AACCCGGCCAAUGCCGGUCCCAAGCCCGGAUAAAAGUGGAGGGGGCGG [A4C U6G], the self-cleavage is reported as 0.0323.
AACCCCGCCAAUGCCGGUCCCAAGCCCGGAUAAAAGUGGAGGGGGCGG [A4C U6C] showed a self-cleavage of 0.0627.
In the case of AACGCUGCCAAUCCCGGUCCCAAGCCCGGAUAAAAGUGGAGGGGGCGG [A4G G13C], the self-cleavage is reported as 0.244.
Variant AACGCUGCCAAUUCCGGUCCCAAGCCCGGAUAAAAGUGGAGGGGGCGG [A4G G13U] has a self-cleavage of 0.327.
AACGCUGCCAAUGCCGGUCCCAAGCCCGGAUAAAAGUGGAGGGGGCCG [A4G G47C] showed a self-cleavage of 0.386.
Work on AACGCUGCCAAUGCUGGUCCCAAGCCCGGAUAAAAGUGGAGGGGGCGG [A4G C15U] yielded a self-cleavage of 0.944.
AACGCUGCCAAUGCGGGUCCCAAGCCCGGAUAAAAGUGGAGGGGGCGG [A4G C15G] showed a self-cleavage of 0.0751.
AACGCUGCCAAUGCCGGUCCCAAGCCCGCAUAAAAGUGGAGGGGGCGG [A4G G29C] gave a self-cleavage of 0.571.
In the case of AACGCUGCCAAUGCCGGUCCCAAGCCCGUAUAAAAGUGGAGGGGGCGG [A4G G29U], the self-cleavage is reported as 0.851.
Variant AACGCUGCCAAUGCCGCUCCCAAGCCCGGAUAAAAGUGGAGGGGGCGG [A4G G17C] has a self-cleavage of 0.0548.
Variant AACGCUGCCAAUGCCGGGCCCAAGCCCGGAUAAAAGUGGAGGGGGCGG [A4G U18G] has a self-cleavage of 0.0583.
Variant AACGCUGCCAAUGCCGGCCCCAAGCCCGGAUAAAAGUGGAGGGGGCGG [A4G U18C] has a self-cleavage of 0.58.
Work on AACGCUGCAAAUGCCGGUCCCAAGCCCGGAUAAAAGUGGAGGGGGCGG [A4G C9A] yielded a self-cleavage of 0.698.
Variant AACCCUGCCAAUGCCGGUCCCAAGCCCGGAUAAAAGUGGAGGGAGCGG [A4C G44A] has a self-cleavage of 0.165.
Work on AACGCUGCCAAUGCCGGUCCCAAGCCCGGAUAAAAGUGGCGGGGGCGG [A4G A40C] yielded a self-cleavage of 0.0709.
AACCCUGCCAAUGCCGGUCCCAAGCCCGGAGAAAAGUGGAGGGGGCGG [A4C U31G] showed a self-cleavage of 0.177.
With AACCCUGCCAAUGCCGGUCCCAAGCCCGGAAAAAAGUGGAGGGGGCGG [A4C U31A] the self-cleavage was 0.182.
AACGCCGCCAAUGCCGGUCCCAAGCCCGGAUAAAAGUGGAGGGGGCGG [A4G U6C] gave a self-cleavage of 0.104.
AACUCUGCCAAUGCCGGUCCCAAGCGCGGAUAAAAGUGGAGGGGGCGG [A4U C26G] gave a self-cleavage of 0.0523.
For AACUCUGCCAAUGCCGGUCCCAAGCUCGGAUAAAAGUGGAGGGGGCGG [A4U C26U], the self-cleavage was 0.0595.
AACGCUGCCAAUGCCGGUCCCAAGUCCGGAUAAAAGUGGAGGGGGCGG [A4G C25U] gave a self-cleavage of 0.595.
With AACUCUGACAAUGCCGGUCCCAAGCCCGGAUAAAAGUGGAGGGGGCGG [A4U C8A] the self-cleavage was 0.0382.
In the case of AACGCUGCCAAUGCCGGUCCCAUGCCCGGAUAAAAGUGGAGGGGGCGG [A4G A23U], the self-cleavage is reported as 0.358.
With AACGCUGCCAAUGCCGGUCCCACGCCCGGAUAAAAGUGGAGGGGGCGG [A4G A23C] the self-cleavage was 0.0625.
With AACGCUGCCAAUGCCGGUCCCAAGCCCGGAUAAAAGUGGAGGGGCCGG [A4G G45C] the self-cleavage was 0.294.
Work on AACGCUGCCAAUGCCGGUCCCAAGCCCGGAUAAAAGUGGAGGGGUCGG [A4G G45U] yielded a self-cleavage of 0.741.
AACGCUGCCAAUGCCGGUCCCAAGCCCGGAUAAAAGAGGAGGGGGCGG [A4G U37A] showed a self-cleavage of 0.796.
AACGCUGCCAAUGCCGGUCCCAAGCCCGGAUAAAAGGGGAGGGGGCGG [A4G U37G] showed a self-cleavage of 0.73.
Work on AACGCUGCCAAUGCCGGUCCCAAGCCCGGAUAAAAGUGGAGGGAGCGG [A4G G44A] yielded a self-cleavage of 0.88.
AACCCUGCCAAUGCCGGUCCCAAGCCCGGAUAAAACUGGAGGGGGCGG [A4C G36C] gave a self-cleavage of 0.0766.
Variant AACCCUGCCAAUGCCGGUCCCAAGCCCGGAUAAAAAUGGAGGGGGCGG [A4C G36A] has a self-cleavage of 0.103.
Variant AACUCUGCCAAUGCCGGUCCCUAGCCCGGAUAAAAGUGGAGGGGGCGG [A4U A22U] has a self-cleavage of 0.0795.
In the case of AACUCUGCUAAUGCCGGUCCCAAGCCCGGAUAAAAGUGGAGGGGGCGG [A4U C9U], the self-cleavage is reported as 0.0756.
With AACUCUGCAAAUGCCGGUCCCAAGCCCGGAUAAAAGUGGAGGGGGCGG [A4U C9A] the self-cleavage was 0.0614.
With AACGCUGCCAAUGCCGGUCCCAAGCCCGGAUAAAAGUGGAAGGGGCGG [A4G G41A] the self-cleavage was 0.244.
With AACGCUGCCAAUGCCGGUCCCAAGCCCGGAUAAAAGUGGACGGGGCGG [A4G G41C] the self-cleavage was 0.181.
AACGCUGCCAAUGCCGGUCGCAAGCCCGGAUAAAAGUGGAGGGGGCGG [A4G C20G] showed a self-cleavage of 0.128.
In the case of AACGCUACCAAUGCCGGUCCCAAGCCCGGAUAAAAGUGGAGGGGGCGG [A4G G7A], the self-cleavage is reported as 0.169.
For AACGCUCCCAAUGCCGGUCCCAAGCCCGGAUAAAAGUGGAGGGGGCGG [A4G G7C], the self-cleavage was 0.0363.
AACCCUGCCAAUGCCGGUCCCAAGCCCGGAUAAAAGUGGAAGGGGCGG [A4C G41A] showed a self-cleavage of 0.0502.
AACGCUGCCAAUGCCGGUCCCAAGCCCGGAUAAAAGUCGAGGGGGCGG [A4G G38C] gave a self-cleavage of 0.918.
For AACGCUGCCAAUGCCGGUCCCAAGCCCGGAUAAAAGUUGAGGGGGCGG [A4G G38U], the self-cleavage was 0.947.
With AACGCUGCCAAUGCCGGUCCCAAGCACGGAUAAAAGUGGAGGGGGCGG [A4G C26A] the self-cleavage was 0.293.
AACGCUGCCAAUGCCGGUCCCAAGCGCGGAUAAAAGUGGAGGGGGCGG [A4G C26G] gave a self-cleavage of 0.169.
In the case of AACGCUGCCAAUGCCGGUCCCAAGCUCGGAUAAAAGUGGAGGGGGCGG [A4G C26U], the self-cleavage is reported as 0.252.
Variant AACUCUGCCGAUGCCGGUCCCAAGCCCGGAUAAAAGUGGAGGGGGCGG [A4U A10G] has a self-cleavage of 0.125.
AACUCUGCCAAUGCCGGUCCCAAGCCCGGGUAAAAGUGGAGGGGGCGG [A4U A30G] showed a self-cleavage of 0.176.
Variant AACUCUGCCAAUGCCGGUCCCAAGCCCGGCUAAAAGUGGAGGGGGCGG [A4U A30C] has a self-cleavage of 0.0756.
In the case of AACCCUGCCAAUGCCGGUCCCAAGCCCGAAUAAAAGUGGAGGGGGCGG [A4C G29A], the self-cleavage is reported as 0.168.
In the case of AACCCUGCCAAUGCCGGUCCCAAGCCCGCAUAAAAGUGGAGGGGGCGG [A4C G29C], the self-cleavage is reported as 0.0879.
For AACCCUGCCAAUGCCGGUCCCAAGCCCGUAUAAAAGUGGAGGGGGCGG [A4C G29U], the self-cleavage was 0.145.
Work on AACGCUGCCAAUGCCGGUCCCAAGCCCGGAUAUAAGUGGAGGGGGCGG [A4G A33U] yielded a self-cleavage of 0.858.
Variant AACGCUGCCAAUGCCGGUCCCAAGCCCGGAUGAAAGUGGAGGGGGCGG [A4G A32G] has a self-cleavage of 1.05.
